Reference: patent publication US20060275211A1 (AGENSYS, published 2006)

How the values were obtained:
[1] = molecular target: T1, mouse 161P2F10B expressed on 293T cells (mouse, UniProt Q6DYE8 1-874); assay: FACS: 293T-mouse 161P2F10B cells (open line) vs 293T-neo cells (filled), MAb 2 µg/mL, anti-hIgG-PE
T1 construct: whole, on cells; also called murine 161P2F10B; mouse 161P2F10B ortholog
Experimental: Cross reactivity of human MAbs on mouse 161P2F10B. […] Antibodies bound on the cells were detected using anti-hIgG-PE and analyzed on FACS. Data were analyzed using CellQuest Pro software. The solid purple line is data from negative control cells. The green line is from 161P2F10B-positive cells.

[2] = molecular target: T2, Tag5-161P2F10B, purified recombinant extracellular domain (ECD) of 161P2F10B (amino acids 46-875) (human, UniProt O14638 46-875); assay: SPR, MAb captured on CM5 chip, recombinant 161P2F10B 1-100 nM injected
T2 construct: also called recombinant 161P2F10B; Tag5-161P2F10B-ECD
Text: Briefly, each purified human MAb is captured onto a CM5 sensor chip surface. On average approximately 150 RUs of each MAb is captured in every cycle.

T1 sequence (Q6DYE8 whole entry): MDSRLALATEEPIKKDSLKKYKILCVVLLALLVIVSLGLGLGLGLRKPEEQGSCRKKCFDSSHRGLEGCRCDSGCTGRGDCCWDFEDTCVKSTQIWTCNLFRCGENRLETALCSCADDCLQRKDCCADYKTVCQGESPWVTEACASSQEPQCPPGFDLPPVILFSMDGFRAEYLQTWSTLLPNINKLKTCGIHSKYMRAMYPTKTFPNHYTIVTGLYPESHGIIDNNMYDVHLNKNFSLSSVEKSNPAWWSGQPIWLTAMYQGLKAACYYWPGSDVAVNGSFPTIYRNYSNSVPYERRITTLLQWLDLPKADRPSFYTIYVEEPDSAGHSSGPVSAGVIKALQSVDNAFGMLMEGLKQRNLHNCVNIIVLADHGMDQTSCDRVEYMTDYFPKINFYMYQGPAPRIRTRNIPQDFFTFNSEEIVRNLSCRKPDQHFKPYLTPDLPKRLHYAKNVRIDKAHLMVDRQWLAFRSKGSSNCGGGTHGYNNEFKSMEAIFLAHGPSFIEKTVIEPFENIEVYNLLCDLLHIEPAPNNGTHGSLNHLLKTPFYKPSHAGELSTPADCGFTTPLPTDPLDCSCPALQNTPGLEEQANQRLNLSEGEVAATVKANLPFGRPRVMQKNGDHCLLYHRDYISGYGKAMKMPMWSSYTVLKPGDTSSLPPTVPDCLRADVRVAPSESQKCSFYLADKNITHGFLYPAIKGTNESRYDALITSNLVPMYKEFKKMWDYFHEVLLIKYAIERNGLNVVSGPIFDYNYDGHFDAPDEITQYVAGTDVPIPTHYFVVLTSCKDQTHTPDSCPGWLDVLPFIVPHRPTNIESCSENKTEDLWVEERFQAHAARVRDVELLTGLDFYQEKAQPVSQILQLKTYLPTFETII

Row | Binder | binding result [1] | Kd [2] [nM]
1 | H16-7.8 (antibody, V domains shown, Entries include the leader and a portion of the constant region) VH: QVQLQESGPGLVKPSQTLSLTCTVSGGSISSGGYYWSWIRQHPGKGLEWIGIIYYSGSTYYNPSLKSRVTISVDTSKNQFSLKLNSVTAADTAVFYCARVAIVTTIPGGMDVWGQGTTVTVSS VL: EIVLTQSPDFQSVTPKEKVTITCRASQSIGISLHWYQQKPDQSPKLLIKYASQSFSGVPSRFSGSGSGTDFTLTINSLEAEDAATYYCHQSRSFPWTFGQGTKVEIKR | binds | –
2 | H16-7.200 (antibody, V domains shown, Entries include the leader (VL: part of it) and a portion of the constant region; also called HA16-7.200) VH: QVQLQESGPGLVKPSQTLSLTCTVSGGSITSGDYYWSWIRQHPGKGLEWFGFIYYSGSAYYNPSLKSRITISVDTSKNQFSLKLSSVTAADTAVYYCARERNYGGNSFDYWGQGTLVTVSS VL: not shown | – | 9
